Measured values published in US20240059757A1 (VIR BIOTECHNOLOGY, published 2024).
Like-named read-outs stand apart in the source and are kept apart here.

Assays:
SARS-CoV Spike protein [1] = biological target: T1, SARS-CoV Spike protein (SARS-CoV, UniProt P59594 14-1255); test: cell-based or functional assay
[2] = biological target: T2, SARS-CoV RBD (Sino Biological) (SARS-CoV, UniProt P59594 306-527); test: BLI
[3] = biological target: T2, SARS-CoV RBD (Sino Biological)
PANG/GD spike protein = PANG/GD spike protein (PANG/GD); test: cell-based or functional assay
SARS-CoV Spike protein [4] = biological target: T1, SARS-CoV Spike protein; test: cell-based or functional assay; remark: listed apart in the source
PANG/GX spike protein = PANG/GX spike protein (PANG/GX); test: cell-based or functional assay
[5] = biological target: WIV-1 spike protein (on VSV pseudovirus) (WIV-1); test: cell-based or functional assay
[6] = biological target: T2, SARS-CoV RBD (Sino Biological); test: BLI; remark: listed apart in the source

B1: S2X259 variant antibody, VH SEQ ID NO 408 / VL SEQ ID NO 442 (antibody, V domains shown)
VH: QVQLVQSGAEVKKPGSSVKVSCKASGGIFNTYTISWVRQAPGQGLEWMGRIILMSGMANYAQKIQGRVTITADKSTSTAYMELTSLRSDDTAVYYCARGFNGNYYGWGDDDAFDISGQGTLVTVYS
VL: QTVLTQPPSVSGAPGQRVTISCTGSNSNIGAGYDVHWYQQLPGTAPKLLISGNSNRPSGVPDRFSGSKSGTSASLAITGLQAEDEADYYCQSYDSSLSGPNWVFGGGTKLTVL
SARS-CoV Spike protein [1]
  neutralization IC50: 0.0531 µg/mL
[2]
  Kd: 397 pM

B2: S2X259 variant antibody, VH SEQ ID NO 459 / VL SEQ ID NO 445 (antibody, V domains shown)
VH: QVQLVQSGAEVKKPGSSVKVSCKASGGIFNTYTISWVRQAPGQGLEWMGRIILMSGKANYAQKIQGRVTITADKSTSTAYMELTSLRSDDTAVYYCARGFNGNYYGWGDDDAFDIWGQGTLVTVSS
VL: QTVLTQPPSVSGAPGQRVTISCTGSNSNIGAGYDVHWYQQLPGTAPKLLIVGNSNRPSGVPDRFSGSKSGTSASLAITGLQAEDEADYYCQSYDSSLSGPNWVFGGGTKLTVL
[3]
  Kd: 792 pM
  koff: 0.000273 s⁻¹
  kon: 345000 M⁻¹ s⁻¹

B3: S2X259 variant antibody, VH SEQ ID NO 460 / VL SEQ ID NO 445 (antibody, V domains shown)
VH: QVQLVQSGAEVKKPGSSVKVSCKASGGIFNTYTISWVRQAPGQGLEWMGRIILISGIANYAQKIQGRVTITADKSTSTAYMELTSLRSDDTAVYYCARGFNGNYYGWGDDDAFDIWGQGTLVTVSS
VL: QTVLTQPPSVSGAPGQRVTISCTGSNSNIGAGYDVHWYQQLPGTAPKLLIVGNSNRPSGVPDRFSGSKSGTSASLAITGLQAEDEADYYCQSYDSSLSGPNWVFGGGTKLTVL
[3]
  Kd: 1590 pM
  koff: 0.000621 s⁻¹
  kon: 391000 M⁻¹ s⁻¹

B4: S2X259 variant antibody, VH SEQ ID NO 448 / VL SEQ ID NO 412 (antibody, V domains shown)
VH: QVQLVQSGAEVKKPGSSVKVSCKASGGIFSTYTISWVRQAPGQGLEWMGRIILMSGMANYAQKIQGRVTITADKSTSTAYMELTSLRSDDTAVYYCARGFNGNYYGWGDDDAFDISGQGTLVTVYS
VL: QTVLTQPPSVSGAPGQRVTISCTGSNSNIGAGYDVHWYQQLPGTAPKLLICGNSNRPSGVPDRFSGSKSGTSASLAITGLQAEDEADYYCQSYDSSLSGPNWVFGGGTKLTVL
[2]
  binding result: no binding

B5: S2X259 variant antibody, VH SEQ ID NO 408 / VL SEQ ID NO 443 (antibody, V domains shown)
VH: QVQLVQSGAEVKKPGSSVKVSCKASGGIFNTYTISWVRQAPGQGLEWMGRIILMSGMANYAQKIQGRVTITADKSTSTAYMELTSLRSDDTAVYYCARGFNGNYYGWGDDDAFDISGQGTLVTVYS
VL: QTVLTQPPSVSGAPGQRVTISCTGSNSNIGAGYDVHWYQQLPGTAPKLLIAGNSNRPSGVPDRFSGSKSGTSASLAITGLQAEDEADYYCQSYDSSLSGPNWVFGGGTKLTVL
SARS-CoV Spike protein [1]
  neutralization IC50: 0.0353 µg/mL
[2]
  Kd: 521 pM
PANG/GD spike protein
  neutralization IC50: < 0.1 µg/mL
SARS-CoV Spike protein [4]
  neutralization IC50: < 0.1 µg/mL
PANG/GX spike protein
  neutralization IC50: < 0.1 µg/mL
[5]
  neutralization IC50: < 0.1 µg/mL

B6: S2X259 variant antibody, VH SEQ ID NO 446 / VL SEQ ID NO 412 (antibody, V domains shown)
VH: QVQLVQSGAEVKKPGSSVKVSCKASGGIFNTYTISWVRQAPGQGLEWMGRIILISGIANYAQKIQGRVTITADKSTSTAYMELTSLRSDDTAVYYCARGFNGNYYGWGDDDAFDISGQGTLVTVYS
VL: QTVLTQPPSVSGAPGQRVTISCTGSNSNIGAGYDVHWYQQLPGTAPKLLICGNSNRPSGVPDRFSGSKSGTSASLAITGLQAEDEADYYCQSYDSSLSGPNWVFGGGTKLTVL
[2]
  Kd: 5580 pM

B7: S2X259 variant antibody, VH SEQ ID NO 408 / VL SEQ ID NO 445 (antibody, V domains shown)
VH: QVQLVQSGAEVKKPGSSVKVSCKASGGIFNTYTISWVRQAPGQGLEWMGRIILMSGMANYAQKIQGRVTITADKSTSTAYMELTSLRSDDTAVYYCARGFNGNYYGWGDDDAFDISGQGTLVTVYS
VL: QTVLTQPPSVSGAPGQRVTISCTGSNSNIGAGYDVHWYQQLPGTAPKLLIVGNSNRPSGVPDRFSGSKSGTSASLAITGLQAEDEADYYCQSYDSSLSGPNWVFGGGTKLTVL
SARS-CoV Spike protein [1]
  neutralization IC50: 0.036 µg/mL
[2]
  Kd: 530 pM
PANG/GD spike protein
  neutralization IC50: < 0.1 µg/mL
SARS-CoV Spike protein [4]
  neutralization IC50: < 0.1 µg/mL
PANG/GX spike protein
  neutralization IC50: < 0.1 µg/mL
[5]
  neutralization IC50: < 0.1 µg/mL
[6]
  Kd: 176 pM
  koff: ~7.24e-05 s⁻¹
  kon: 411000 M⁻¹ s⁻¹

B8: S2X259 variant antibody, VH SEQ ID NO 458 / VL SEQ ID NO 445 (antibody, V domains shown)
VH: QVQLVQSGAEVKKPGSSVKVSCKASGGIFNTYTISWVRQAPGQGLEWMGRIILMSGMANYAQKIQGRVTITADKSTSTAYMELTSLRSDDTAVYYCARGFNGNYYGWGDDDAFDIWGQGTLVTVSS
VL: QTVLTQPPSVSGAPGQRVTISCTGSNSNIGAGYDVHWYQQLPGTAPKLLIVGNSNRPSGVPDRFSGSKSGTSASLAITGLQAEDEADYYCQSYDSSLSGPNWVFGGGTKLTVL
[6]
  Kd: 455 pM
  koff: 0.000173 s⁻¹
  kon: 380000 M⁻¹ s⁻¹

B9: S2X259 variant antibody, VH SEQ ID NO 408 / VL SEQ ID NO 444 (antibody, V domains shown)
VH: QVQLVQSGAEVKKPGSSVKVSCKASGGIFNTYTISWVRQAPGQGLEWMGRIILMSGMANYAQKIQGRVTITADKSTSTAYMELTSLRSDDTAVYYCARGFNGNYYGWGDDDAFDISGQGTLVTVYS
VL: QTVLTQPPSVSGAPGQRVTISCTGSNSNIGAGYDVHWYQQLPGTAPKLLIYGNSNRPSGVPDRFSGSKSGTSASLAITGLQAEDEADYYCQSYDSSLSGPNWVFGGGTKLTVL
SARS-CoV Spike protein [1]
  neutralization IC50: 0.0811 µg/mL
[2]
  Kd: 1340 pM
